From PMC10352601 (Blood, 2023)

Biological target: T1, ET3i, a bioengineered human/porcine FVIII chimera (Homo sapiens / Sus scrofa chimera (A1, …, chimera))
T1 chain: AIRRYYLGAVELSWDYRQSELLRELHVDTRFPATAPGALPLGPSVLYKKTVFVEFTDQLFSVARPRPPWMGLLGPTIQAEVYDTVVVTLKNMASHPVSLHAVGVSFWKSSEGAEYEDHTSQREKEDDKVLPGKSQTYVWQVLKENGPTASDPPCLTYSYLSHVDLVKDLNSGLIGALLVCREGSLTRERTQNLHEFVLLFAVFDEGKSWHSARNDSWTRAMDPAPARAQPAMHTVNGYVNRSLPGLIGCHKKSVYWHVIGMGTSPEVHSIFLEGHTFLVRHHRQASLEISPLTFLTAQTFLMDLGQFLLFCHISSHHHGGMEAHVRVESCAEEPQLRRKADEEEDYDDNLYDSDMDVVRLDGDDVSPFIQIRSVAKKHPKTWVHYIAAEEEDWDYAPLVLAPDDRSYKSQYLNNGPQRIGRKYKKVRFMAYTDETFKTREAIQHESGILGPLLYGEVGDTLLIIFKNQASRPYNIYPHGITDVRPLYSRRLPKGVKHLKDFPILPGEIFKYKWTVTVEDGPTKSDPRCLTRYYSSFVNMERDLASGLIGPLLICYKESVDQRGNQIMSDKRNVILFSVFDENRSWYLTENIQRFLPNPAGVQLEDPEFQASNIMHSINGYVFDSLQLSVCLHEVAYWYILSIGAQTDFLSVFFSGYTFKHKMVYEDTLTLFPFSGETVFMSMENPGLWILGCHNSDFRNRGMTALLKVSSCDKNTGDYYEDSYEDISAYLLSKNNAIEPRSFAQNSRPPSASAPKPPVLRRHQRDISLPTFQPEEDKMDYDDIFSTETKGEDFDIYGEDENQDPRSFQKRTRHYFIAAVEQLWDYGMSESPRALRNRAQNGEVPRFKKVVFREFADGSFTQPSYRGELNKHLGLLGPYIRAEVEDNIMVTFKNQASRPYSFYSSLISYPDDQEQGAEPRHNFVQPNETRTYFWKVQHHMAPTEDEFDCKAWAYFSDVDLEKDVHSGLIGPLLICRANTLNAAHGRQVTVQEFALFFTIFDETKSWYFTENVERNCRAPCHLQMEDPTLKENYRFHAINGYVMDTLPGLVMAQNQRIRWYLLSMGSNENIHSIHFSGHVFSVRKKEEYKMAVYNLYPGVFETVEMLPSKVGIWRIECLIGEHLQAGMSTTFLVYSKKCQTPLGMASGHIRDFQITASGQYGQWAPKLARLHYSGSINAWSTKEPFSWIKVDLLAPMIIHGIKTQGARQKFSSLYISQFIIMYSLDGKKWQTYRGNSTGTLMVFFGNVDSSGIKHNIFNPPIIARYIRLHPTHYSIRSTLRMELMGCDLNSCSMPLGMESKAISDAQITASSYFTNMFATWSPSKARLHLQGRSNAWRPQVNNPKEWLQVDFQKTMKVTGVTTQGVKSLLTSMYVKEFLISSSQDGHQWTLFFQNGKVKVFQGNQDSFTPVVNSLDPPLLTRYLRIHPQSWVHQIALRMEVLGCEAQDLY
Assay: cell-based or functional assay

- neutralization of ET3i by NB33, factor X activation chromogenic assay (IC50): 3.64 nM
B1: Fab fragment of NB33, a recombinant immunoglobulin G derivative of KM33 (Fab, V domains shown)
VH: EVQLVESGGGVVQPGRSLRLSCVDSGLTFSSYGMHWVRQAPGAGLEWVAVISYDGNDKYYADSVKGRFAISRDNAKNTLYLQMNSLTIEDTAVYYCAKDLIESNIAEAFWGQGTLVTVSS
VL: DIQMTQSPSSLSASVGDTVTIACRASRDIRNDLAWYQQKPGKAPKLLIYATSRLQSGVPSRFSGSGSFTDFTLTINSLQPDDSATYYCLQDSDYPLTFGGGTKVDIK
